Assay results: patent US20250277030A1 (Zymeworks, published 2025)
Substitutions are numbered along the chain they refer to.

Tests used:
[1] = molecular target: T1, human sodium-dependent phosphate transporter 2B (NaPi2b) (human, UniProt O95436 1-690); assay: flow cytometry, IGROV-1 cells (endogenous NaPi2b), 24 h at 4 °C
T1 construct: UniProt ID is given as 095436 [sic]; also called hNaPi2b; Hu NaPi2b
T1 sequence: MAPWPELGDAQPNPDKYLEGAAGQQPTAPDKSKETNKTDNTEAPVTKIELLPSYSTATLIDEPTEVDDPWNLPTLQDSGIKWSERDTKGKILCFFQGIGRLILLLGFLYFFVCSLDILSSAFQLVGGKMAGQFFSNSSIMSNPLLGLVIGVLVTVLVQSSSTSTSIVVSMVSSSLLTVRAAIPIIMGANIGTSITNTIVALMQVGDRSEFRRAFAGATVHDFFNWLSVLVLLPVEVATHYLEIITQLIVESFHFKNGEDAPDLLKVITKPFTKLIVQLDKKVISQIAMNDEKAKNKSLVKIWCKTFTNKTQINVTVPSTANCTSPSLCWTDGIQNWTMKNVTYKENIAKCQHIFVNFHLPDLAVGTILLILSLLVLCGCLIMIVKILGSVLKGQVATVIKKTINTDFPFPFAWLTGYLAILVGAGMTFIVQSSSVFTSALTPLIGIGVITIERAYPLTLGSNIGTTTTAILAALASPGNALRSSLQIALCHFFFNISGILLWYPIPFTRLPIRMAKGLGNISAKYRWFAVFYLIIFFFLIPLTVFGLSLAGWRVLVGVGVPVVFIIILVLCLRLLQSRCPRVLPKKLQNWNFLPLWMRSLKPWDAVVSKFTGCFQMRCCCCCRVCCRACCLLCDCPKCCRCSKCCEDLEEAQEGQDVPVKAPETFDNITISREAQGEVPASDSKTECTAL
How it was run: (§1)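 IGROV-1 cells were incubated with test antibody for 24 hours at 4° C to prevent internalization, then stained with anti-human IgG Fc AF647 for 30 min at 4° C. AF647 geometric mean fluorescence of live cells was measured by flow cytometry and plotted per antibody.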

[2] = molecular target: T1, human sodium-dependent phosphate …; assay: cell-based or functional assay
[3] = molecular target: T1, human sodium-dependent phosphate …; assay: flow cytometry on IGROV-1 cells (endogenous NaPi2b), 24 h at 4 C, anti-human IgG Fc AF647 detection
Description: IGROV-1 cells express endogenous NaPi2b at a high level.
Briefly, cells were seeded at 50,000 cells/well in conical-bottom 96-well plates and treated with test antibody for 24 hours at 4° C. to prevent internalization. […] Following incubation, cells were washed and stained with anti-Human IgG Fc AF647 conjugate (Jackson Immuno Research Labs, West Grove, PA; Cat. No. 109-605-098) at 4° C. for 30 min. Following incubation and washing, fluorescence was detected by flow cytometry on a BD LSRFortessa™ Cell Analyzer (BD Biosciences, Franklin Lake, NJ) with 1,000 minimum events collected per well. The AF647/APC-A GeoMean (fluorescence signal geometric mean, proportional to anti-Human AF647 binding) was calculated for the live cell population using FlowJo™ Version 10.8.1 (BD Biosciences, Franklin Lake, NJ) and plotted for each test antibody using GraphPad Prism Version 9 (GraphPad Software, San Diego, CA).

[4] = molecular target: T1, human sodium-dependent phosphate …; assay: flow cytometry, IGROV-1 cells (endogenous NaPi2b), 24 h at 4 °C; apparent Kd
How it was run: as §1

[5] = molecular target: T2, KLH (Sigma-Aldrich, H8283); assay: non-specific binding ELISA, KLH coated at 5 µg/mL, antibody at 100 nM
T2 construct: also called keyhole limpet hemocyanin
Description: NS-ELISA was carried out in Corning®96-well EIA/RIA Easy Wash™ Clear Flat Bottom Polystyrene High Bind Microplate coated overnight at 4° C. with 50 μL of Heparin (Sigma, H3149) diluted with 50 mM sodium carbonate pH 9.6 to a final concentration of 250 μg/mL. The plate was incubated for 2 days at room temperature, wells that were coated with heparin were not covered to allow air dry. […] 50 μL each of insulin, KLH, dsDNA and ssDNA were added to a 96 well plate, followed by the incubation at 37° C. for 2 h. The coating materials were removed, and the plate was blocked with 200 μL of Gibco™ PBS pH7.4, 0.1% Tween®20, and incubated for 1 h at room temperature with shaking at 200 rpm. The plate was washed 3 times with Gibco™ PBS pH7.4, 0.1% Tween 20. […] Reactions were stopped after approximately 10 minutes by adding 100 μL of 1 M HCl to each well, and absorbance was read at 450 nm. Binding scores were calculated as the ratio of the ELISA signal of the antibody (antibody-treated) to the signal of a well containing buffer instead of the primary antibody (untreated). The cutoffs considered for each binding molecule (ssDNA, KLH, insulin, dsDNA and heparin) were internally calculated, based on the average of Zymeworks Inc. produced antibodies and antibodies benchmarks published in the literature.

[6] = molecular target: T1, human sodium-dependent phosphate …; assay: KinExA, IGROV-1 cells, monovalent format
Description: The binding affinity of anti-NaPi2b antibody constructs was assessed by Kinexa in the endogenous NaPi2b-expressing cell line, IGROV-1.
(§2) The cell-binding assay was set up using the antibody constructs or variants as constant binding partner at two different concentrations of 50 pM and 500 pM. For the titration curve with antibody variants fixed at 50 pM, at least 10 million IGROV-1 cells were used as titrant. For the titration curve with antibody variants fixed at 500 pM, at least 5 million cells were used as titrant. The antibody variants and cells were mixed in PBS pH 7.4, 1 mg/mL BSA, 0.2% NaN₃ and incubated at 4° C. for 7 days with gentle rotation until equilibrium was reached. After incubation, the mixture of antibody variants and cells was centrifuged to separate the cells from the unbound free antibody variants. The free antibody variants were loaded onto the KinExA 3200 (Sapidyne, Boise, Idaho) with biotinylated—anti-human IgG PMMA as solid phase and 0.5 μg/mL of Alexa 647 goat anti-human IgG (Jackson ImmunoResearch, West Grove, PA) as detection antibody.
(§3) N-curve analysis was used to calculate the affinity and receptor expression level with the concentrations of antibody variant as reference point.

[7] = molecular target: T1, human sodium-dependent phosphate …; assay: KinExA, IGROV-1 cells (endogenous NaPi2b) as titrant, monovalent antibody constant at 50 and 500 pM, N-curve analysis
Description: as §2, §3

[8] = molecular target: T1, human sodium-dependent phosphate …; assay: flow cytometry on IGROV-1 cells (endogenous NaPi2b), 4 C, anti-human IgG Fc AF647 detection
Description: (§4) Briefly, HEK293-6e cells were transfected for ˜24 hours to transiently express human NaPi2b, cynomolgus or mouse NaPi2b, at 1 μg of DNA per 1 million cells. Following transfection, 50,000 cells per well were seeded in V-bottom 96-well plates and incubated with 200 nM of primary antibody for 18-24 hours at 4° C. to prevent internalization. Post-incubation, cells were washed and stained with anti-Human IgG Fc AF647 conjugate (Jackson Immuno Research Labs, West Grove, PA, Cat. No. 109-605-098, Lot. No. 124868) at 4° C. for 1 hour. Following staining and washing, fluorescence was detected by flow cytometry on BD LSRFortessa™ Cell Analyzer (BD Biosciences, Franklin Lake, NJ) with 10,000 minimum events collected per well. The AF647/APC-A GeoMean (fluorescence signal geometric mean, proportional to anti-Human AF647 binding) was calculated for the live singlet cell population for each primary antibody using FlowJo™ v8 software (BD Biosciences, Franklin Lake, NJ). The Bmax and Kd of each primary antibody were calculated using GraphPad Prism Version 9 (GraphPad Software, San Diego, CA)
(§5) The ability of ADCs to bind to cells expressing NaPi2b was assessed. […] Binding to endogenous high NaPi2b-expressing cell lines IGROV-1 and HCC-78 was assessed by flow cytometry according to methods described in Example 5.

[9] = molecular target: T1, human sodium-dependent phosphate …; assay: flow cytometry, HCC-78 cells (endogenous NaPi2b); apparent Kd
Description: as §4, §5

[10] = molecular target: T1, human sodium-dependent phosphate …; assay: flow cytometry, IGROV-1 cells (endogenous NaPi2b)
Description: as §4, §5

[11] = molecular target: T1, human sodium-dependent phosphate …; assay: flow cytometry, IGROV-1 cells (endogenous NaPi2b); apparent Kd
Description: as §4, §5

[12] = molecular target: T1, human sodium-dependent phosphate …; assay: flow cytometry, HCC-78 cells (endogenous NaPi2b)
Description: as §4, §5

[13] = molecular target: T1, human sodium-dependent phosphate …; assay: flow cytometry on HCC-78 cells (endogenous NaPi2b), 4 C, anti-human IgG Fc AF647 detection
Description: as §4, §5

B1: v18992-DL2, MX35 conjugated to MT-VC-Compound 1 (DAR 3) (antibody, human IgG1, kappa)
heavy 1: GQVQLVQSGAEVVKPGASVKMSCKASGYTFTGYNIHWVKQAPGQGLEWIGAIYPGNGDTSYKQKFRGRATLTADTSTSTVYMELSSLRSEDSAVYYCARGETARATFAYWGQGTLVTVSSASTKGPSVFPLAPSSKSTSGGTAALGCLVKDYFPEPVTVSWNSGALTSGVHTFPAVLQSSGLYSLSSVVTVPSSSLGTQTYICNVNHKPSNTKVDKKVEPKSCDKTHTCPPCPAPELLGGPSVFLFPPKPKDTLMISRTPEVTCVVVDVSHEDPEVKFNWYVDGVEVHNAKTKPREEQYNSTYRVVSVLTVLHQDWLNGKEYKCKVSNKALPAPIEKTISKAKGQPREPQVYVYPPSRDELTKNQVSLTCLVKGFYPSDIAVEWESNGQPENNYKTTPPVLDSDGSFALVSKLTVDKSRWQQGNVFSCSVMHEALHNHYTQKSLSLSPG
heavy 2: not shown
light: GDIQMTQSPSSLSASVGDRVTITCSASQDIGNFLNWYQQKPGKTVKVLIYYTSSLYSGVPSRFSGSGSGTDYTLTISSLQPEDFATYYCQQYSKLPLTFGQGTKLELKRTVAAPSVFIFPPSDEQLKSGTASVVCLLNNFYPREAKVQWKVDNALQSGNSQESVTEQDSKDSTYSLSSTLTLSKADYEKHKVYACEVTHQGLSSPVTKSFNRGEC
modifications: MT-VC-Compound 1 (DL2) on cysteines freed by reduction; positions not given; MT-VC-Compound 1 (DL2) on cysteines freed by reduction; positions not given; DAR 3 for the whole antibody
notes: also called MX35 Compound 1 ADC; MX35-DL2 ADC
[1]
  Bmax (MFI): 41200 MFI
[2]
  In vitro cytotoxicity EC50 (nM), HCC-78: 0.13 nM
  In vitro cytotoxicity EC50 (nM), IGROV-1: 0.11 nM
  In vitro cytotoxicity EC50 (nM), OVCAR-3: 0.02 nM
[3]
  EC50 (read off the curve): ~1 nM
[4]
  Kd: 1.22 nM

B2: v29452 humanized anti-NaPi2b antibody (H1L3) (antibody, human IgG1, kappa, V domains shown)
VH: QVQLVQSGAEVKKPGASVKVSCKASGFTFTSYNVHWVRQAPGQGLEWMGAISPGNGDLSYAQKFQGRVTMTRDTSTSTVYMELSSLRSEDTAVYYCARGRTGMGAVDYWGQGTLVTVSS
VL: DVQMTQSPSSLSASVGDRVTITCRASQDVYSYLNWYQQKPGKAVKLLIYYTSRLQSGVPSRFSGSGSGTDYTLTISSLQPEDIATYYCQQYNIFPWTFGQGTKLEIKR
[5]
  NS-ELISA binding score (ratio of signal between antibody-treated and untreated): 1.34 ratio
[1]
  Bmax (MFI): 47800 MFI
[4]
  Kd: 1.6 nM

B3: v36123, monovalent format of humanized antibody variant 29452 (antibody, V domains shown)
VH: B2 VH
VL: DVQMTQSPSSLSASVGDRVTITCRASQDVYSYLNWYQQKPGKAVKLLIYYTSRLQSGVPSRFSGSGSGTDYTLTISSLQPEDIATYYCQQYNIFPWTFGQGTKLEIK
notes: Only said to be the monovalent format of v29452; also called v36123 (VH1/VL3)
[6]
  fold lower binding affinity than chimeric parental antibody construct (v29814): ~2 fold
[7]
  Kd: 0.297 nM

B4: v36124, monovalent format of humanized antibody variant 29456 (antibody, V domains shown)
VH: B2 VH
VL: B3 VL with I83F
notes: Only said to be the monovalent format of v29456; also called v36124 (VH1/VL2)
[6]
  fold lower binding affinity than chimeric parental antibody construct (v29814): ~2 fold
[7]
  Kd: 0.283 nM

B5: v29456-DL1, v29456 conjugated to MC-GGFG-AM-DXd1 (DAR 8) (antibody, human IgG1, kappa)
heavy: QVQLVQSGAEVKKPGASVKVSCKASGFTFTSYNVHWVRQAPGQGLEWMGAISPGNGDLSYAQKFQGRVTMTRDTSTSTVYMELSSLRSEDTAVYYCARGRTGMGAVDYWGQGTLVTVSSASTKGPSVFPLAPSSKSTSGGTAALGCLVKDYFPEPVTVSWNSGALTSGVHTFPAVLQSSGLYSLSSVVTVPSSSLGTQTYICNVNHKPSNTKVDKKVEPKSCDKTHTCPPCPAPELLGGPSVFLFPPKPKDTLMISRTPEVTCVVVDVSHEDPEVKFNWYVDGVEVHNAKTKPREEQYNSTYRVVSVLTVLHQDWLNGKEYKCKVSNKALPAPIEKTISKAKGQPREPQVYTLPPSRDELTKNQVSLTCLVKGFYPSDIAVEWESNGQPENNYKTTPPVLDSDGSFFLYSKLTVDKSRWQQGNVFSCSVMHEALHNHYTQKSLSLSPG
light: DVQMTQSPSSLSASVGDRVTITCRASQDVYSYLNWYQQKPGKAVKLLIYYTSRLQSGVPSRFSGSGSGTDYTLTISSLQPEDFATYYCQQYNIFPWTFGQGTKLEIKRTVAAPSVFIFPPSDEQLKSGTASVVCLLNNFYPREAKVQWKVDNALQSGNSQESVTEQDSKDSTYSLSSTLTLSKADYEKHKVYACEVTHQGLSSPVTKSFNRGEC
modifications: MC-GGFG-AM-DXd1 (DL1) on cysteines freed by reduction; positions not given; MC-GGFG-AM-DXd1 (DL1) on cysteines freed by reduction; positions not given; DAR 8 for the whole antibody
notes: also called v29456-MC-GGFG-AM-DXd1
[8]
  EC50 (read off the curve): ~0.7 nM
[9]
  Kd: 2.27 nM
[10]
  Bmax (MFI): 77000 MFI
[11]
  Kd: 0.67 nM
[2]
  In vitro cytotoxicity EC50 (nM), HCC-78: 0.51 nM
  In vitro cytotoxicity EC50 (nM), IGROV-1: 1.14 nM
[12]
  Bmax: 21800

B6: v29456-DL2, v29456 conjugated to MT-VC-Compound 1 (DAR 4) (antibody, human IgG1, kappa)
heavy: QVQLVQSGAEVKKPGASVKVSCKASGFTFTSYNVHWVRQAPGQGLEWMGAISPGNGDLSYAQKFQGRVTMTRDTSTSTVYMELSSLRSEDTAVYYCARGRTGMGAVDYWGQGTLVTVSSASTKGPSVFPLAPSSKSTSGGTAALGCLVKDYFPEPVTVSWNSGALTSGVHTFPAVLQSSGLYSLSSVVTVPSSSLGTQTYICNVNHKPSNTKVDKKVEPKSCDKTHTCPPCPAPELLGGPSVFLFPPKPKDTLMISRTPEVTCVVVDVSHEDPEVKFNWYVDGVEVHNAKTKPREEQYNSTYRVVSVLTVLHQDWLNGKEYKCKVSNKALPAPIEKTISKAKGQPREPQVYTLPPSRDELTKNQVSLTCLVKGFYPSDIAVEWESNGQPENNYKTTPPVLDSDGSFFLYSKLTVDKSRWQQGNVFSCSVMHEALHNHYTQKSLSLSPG
light: B5 light
modifications: MT-VC-Compound 1 (DL2) on cysteines freed by reduction; positions not given; MT-VC-Compound 1 (DL2) on cysteines freed by reduction; positions not given; DAR 4 for the whole antibody
notes: also called v29456-MT-VC-Compound 1
[9]
  Kd: 2.32 nM
[10]
  Bmax (MFI): 81400 MFI
[11]
  Kd: 0.77 nM
[2]
  In vitro cytotoxicity EC50 (nM), HCC-78: 0.06 nM
  In vitro cytotoxicity EC50 (nM), IGROV-1: 0.08 nM
  In vitro cytotoxicity EC50 (nM), OVCAR-3: 0.01 nM
[13]
  EC50 (read off the curve): ~2 nM
[12]
  Bmax: 20400
